Here are results for 34 variants from the Human Domainome abundance scans (Beltran et al. 2025).

The chains are these.
B1: Zinc finger MYM-type protein 3, residues 589 to 668; numbered along this chain, Q14202 (parent)
chain: LSCHYCHSLFSGKPEVLDWQDQVFQFCCRDCCEDFKRLRGVVSQCEHCRQEKLLHEKLRFSGVEKSFCSEGCVLLYKQDF

± gives the uncertainty stated by the source.

The data set covers variants of B1. Description: abundance fitness (aPCA) (normalised: wild type 0, dead -1); higher = more abundant; growth selection in yeast, the domain comes from the species named. The following applies: Homo sapiens.
For the variant LSCHYCHSLFSGKPEVLDWQDQVFQFCCRDCCEDFKRLRGVVSQCEHCRQEKLLHEKLRFSGVEKSFQSEGCVLLYKQDF [C68Q], the abundance fitness is -0.558 ± 0.19.

Regarding LSCHYCHSLFSGKPEVLDWQDQVFQFCCRDCCEDFKRLRGVVSQCEHCRQEKLLHEKLRFSGVEKSFGSEGCVLLYKQDF [C68G], the abundance fitness was -0.88 ± 0.15.

Regarding LSDHYCHSLFSGKPEVLDWQDQVFQFCCRDCCEDFKRLRGVVSQCEHCRQEKLLHEKLRFSGVEKSFCSEGCVLLYKQDF [C3D], the abundance fitness was -1.04 ± 0.13.

For the variant LSKHYCHSLFSGKPEVLDWQDQVFQFCCRDCCEDFKRLRGVVSQCEHCRQEKLLHEKLRFSGVEKSFCSEGCVLLYKQDF [C3K], the abundance fitness was -0.837 ± 0.097.

LSCHYCHSVFSGKPEVLDWQDQVFQFCCRDCCEDFKRLRGVVSQCEHCRQEKLLHEKLRFSGVEKSFCSEGCVLLYKQDF [L9V]: the abundance fitness turned out to be 0.015 ± 0.04.

Take LSCHYCHSLFSGKPEVLDWQDQVFQFCCRDCCEDFKRLRGVVSQCEHCRQEKLLHEKLRFSGVEKSFCSEGCVLLYKQPF [D79P]: the abundance fitness was 0.119 ± 0.22.

For the variant LSCHYCHSLFSGKPEVLDWQDQVFQFCCRDCCEDFKRLRGVVSQCEHCRQEKLLHEKQRFSGVEKSFCSEGCVLLYKQDF [L58Q], the abundance fitness was -0.146 ± 0.19.

For LSCHYCHSLFSYKPEVLDWQDQVFQFCCRDCCEDFKRLRGVVSQCEHCRQEKLLHEKLRFSGVEKSFCSEGCVLLYKQDF [G12Y], the abundance fitness was -0.75 ± 0.15.

Turning to LSCHYCHSLNSGKPEVLDWQDQVFQFCCRDCCEDFKRLRGVVSQCEHCRQEKLLHEKLRFSGVEKSFCSEGCVLLYKQDF [F10N], the abundance fitness is -0.373 ± 0.084.

With LSCHYCHSLFSGKPEVLDWQDQVFQFCCRDCCEDFKRLRGVVSQCEHCRQEKLLHEKLRDSGVEKSFCSEGCVLLYKQDF [F60D], the abundance fitness was -0.529 ± 0.36.

LSCHYCHSLFSGKPEVLDWQDQVFQFCCRDCCEDFKRLRGVVSQCEHCRQEKLLHEKLRASGVEKSFCSEGCVLLYKQDF [F60A]: the abundance fitness is -0.034 ± 0.11.

LSCHYCHSLFSGKPEVLDWQDQVFQFCCRDGCEDFKRLRGVVSQCEHCRQEKLLHEKLRFSGVEKSFCSEGCVLLYKQDF [C31G]: the abundance fitness is -0.8 ± 0.078.

LSCHYCMSLFSGKPEVLDWQDQVFQFCCRDCCEDFKRLRGVVSQCEHCRQEKLLHEKLRFSGVEKSFCSEGCVLLYKQDF [H7M]: the abundance fitness was -0.133 ± 0.067.

Take LSCHYCHSLFSGKPEVLDWQDQVFQFCCRDCCEDFKRLRGVVSQCEHCRQEKLLHEKLQFSGVEKSFCSEGCVLLYKQDF [R59Q]: the abundance fitness stood at 0.11 ± 0.29.

Take LSCHYCHSLFSGKPEVLDWQDQVFQFCCRDCCEDFKRLRGVVSQCEHCRQEKLLHEKLRFSGVEKSFCSEGCVLLYKIDF [Q78I]: the abundance fitness was -0.34 ± 0.42.

Regarding LSCHYCHSLFSGKREVLDWQDQVFQFCCRDCCEDFKRLRGVVSQCEHCRQEKLLHEKLRFSGVEKSFCSEGCVLLYKQDF [P14R], the abundance fitness is -0.459 ± 0.048.

Consider LSCHYCHSLFSGKPEVEDWQDQVFQFCCRDCCEDFKRLRGVVSQCEHCRQEKLLHEKLRFSGVEKSFCSEGCVLLYKQDF [L17E], for which the abundance fitness was -0.146 ± 0.05.

Turning to LSCHYCHSLFSGKPEVLDWQDQCFQFCCRDCCEDFKRLRGVVSQCEHCRQEKLLHEKLRFSGVEKSFCSEGCVLLYKQDF [V23C], the abundance fitness came to 0.236 ± 0.046.

Turning to LSCHYCHSLFSGKPEVLDWQDQVFQDCCRDCCEDFKRLRGVVSQCEHCRQEKLLHEKLRFSGVEKSFCSEGCVLLYKQDF [F26D], the abundance fitness was -0.657 ± 0.11.

Turning to LSCHYCHSLFSGKPEVLDWQDQVFQKCCRDCCEDFKRLRGVVSQCEHCRQEKLLHEKLRFSGVEKSFCSEGCVLLYKQDF [F26K], the abundance fitness was -0.524 ± 0.075.

For LSCHYCHSLFSGKPEVLDWQDQVFQYCCRDCCEDFKRLRGVVSQCEHCRQEKLLHEKLRFSGVEKSFCSEGCVLLYKQDF [F26Y], the abundance fitness was -0.409 ± 0.1.

LSCHYCHSLFSGKPEVLDWQDFVFQFCCRDCCEDFKRLRGVVSQCEHCRQEKLLHEKLRFSGVEKSFCSEGCVLLYKQDF [Q22F]: the abundance fitness amounted to 0.047 ± 0.068.

LSCHYCHSLFSGKPEVLDWQDMVFQFCCRDCCEDFKRLRGVVSQCEHCRQEKLLHEKLRFSGVEKSFCSEGCVLLYKQDF [Q22M]: the abundance fitness stood at 0.309 ± 0.054.

For LSCHYCHSLFSGKPEVLDWQDQVFQFCCRDCCEDWKRLRGVVSQCEHCRQEKLLHEKLRFSGVEKSFCSEGCVLLYKQDF [F35W], the abundance fitness was -0.118 ± 0.045.

Turning to LSCHYCHSLFSGKPEVLDWQDQVFQFCCRDCCEDHKRLRGVVSQCEHCRQEKLLHEKLRFSGVEKSFCSEGCVLLYKQDF [F35H], the abundance fitness is -0.219 ± 0.067.

On to LSCEYCHSLFSGKPEVLDWQDQVFQFCCRDCCEDFKRLRGVVSQCEHCRQEKLLHEKLRFSGVEKSFCSEGCVLLYKQDF [H4E], for which the abundance fitness amounted to 0.174 ± 0.047.

Regarding LSCHYCHSLFSGKPEVLDWQDQVFQFCCRDCCVDFKRLRGVVSQCEHCRQEKLLHEKLRFSGVEKSFCSEGCVLLYKQDF [E33V], the abundance fitness was -0.081 ± 0.042.

As for LSCHYCHSLFSGKPEVLDWQDQVFQFCCRDCCKDFKRLRGVVSQCEHCRQEKLLHEKLRFSGVEKSFCSEGCVLLYKQDF [E33K], the abundance fitness is -0.353 ± 0.066.

In the case of LSCHYCHSLFSGKPEVLDWQDQVFQFCCRDCCEDFKRLRGVVSQCEHCRQEKLLHEKLRFWGVEKSFCSEGCVLLYKQDF [S61W], the abundance fitness was -0.467 ± 0.2.

For LSCHYCHSLFSGKPEVLDWQDQVFQFCVRDCCEDFKRLRGVVSQCEHCRQEKLLHEKLRFSGVEKSFCSEGCVLLYKQDF [C28V], the abundance fitness was -0.321 ± 0.043.

As for LSCHYCHSLFSGKPEVLDWQDQVFQFCGRDCCEDFKRLRGVVSQCEHCRQEKLLHEKLRFSGVEKSFCSEGCVLLYKQDF [C28G], the abundance fitness was determined as 0.08 ± 0.038.

Turning to LSCHYCHSLFSGKPEVLDWQDQVEQFCCRDCCEDFKRLRGVVSQCEHCRQEKLLHEKLRFSGVEKSFCSEGCVLLYKQDF [F24E], the abundance fitness was -0.143 ± 0.045.

With LSCHYCHSLFSGKPEVLDWQDQVFQFCCRDCCEDFKRLRGVVSQCEHCRQEKLLHEKLRFSGVEKSFCSCGCVLLYKQDF [E70C], the abundance fitness was 0.121 ± 0.14.

For the variant LSCHYCHSLFSGKPEVLDWQDQVFQFCCRDCCEDFKRLRGVVSQCEHCRQEKLLHEKLRFSGVEKSFCSWGCVLLYKQDF [E70W], the abundance fitness was -0.918 ± 0.4.
